What all share (assay type): biochemical, Clostridium acetobutylicum ATCC824
Substrate in data set [1]: OCC(O)CO
Put plainly: Glycerol kinase activity towards glycerol (ADP appearance coupled to NADH oxidation), wild type. Conditions: other: GlpK wt, pH 9, 30° C., 2 mM ATP, 0.01-50 mM glycerol. From the text:
(§1) Three different point mutations were identified in glpK gene in the clone PD0557Vc05 leading to the mutant protein GlpK* with H22Y, A347T and V466M (table 2 above). In order to better characterize the effect of the mutations, we tested them individually or in combination. Therefore, the alleles coding for the mutated glycerol kinase were cloned into the expression plasmid pPAL7 (Biorad®) and the plasmids obtained were transformed into E. coli strain BL21(DE3) star to purify each mutated protein and perform biochemical experiments.
(§2) Cultures of the seven strains 1 to 7 for the overproduction of the proteins were realized in a 2 L Erlenmeyer flask, using LB broth (Bertani, 1951) that was supplemented with 5 g/L glucose and 100 mg/L of ampicillin. An overnight culture was used to inoculate a 500 mL culture to an OD600 nm of about 0.15. The culture was first kept on a shaker at 37° C. and 200 rpm until OD600 nm was about 0.5 and then the culture was moved on a second shaker at 25° C. and 200 rpm until OD600 nm was 0.6-0.8 (about one hour), before induction with 500 μM IPTG. The culture was kept at 25° C. and 200 rpm until OD600 nm was around 4, and then it was stopped. Cells were centrifuged at 7000 rpm, 5 minutes at 4° C., and then stored at −20° C. This protocol was the same for strains 1 to 7.
(§3) For each strain, about 250 mg of E. coli biomass was suspended in 40 ml of 100 mM potassium phosphate pH 7.6, and a protease inhibitor cocktail. The cells suspension (15 ml per conical tube) was sonicated on ice (Bandelin sonoplus, 70 w) in a 50 ml conical tube during 8 cycles of 30 sec with 30 sec intervals. After sonication, cells were incubated for 30 min at room temperature with 5 mM MgCl2 and 1 UI/ml of DNaseI. Cells debris were removed by centrifugation at 12000 g for 30 min at 4° C.
(§4) The proteins were purified from the crude cell-extract by affinity on a Profinity column (BIORAD, Bio-Scale Mini Profinity exact cartridge 5 ml) according to the protocol recommended by the manufacturer. The crude extract was loaded on a 5 ml Profinity exact cartridge equilibrated with 100 mM potassium phosphate pH 7.6. […] Protein concentration was measured using the Bradford protein assay.
(§5) Determination of kinetic parameters of GlpK wild type and mutants Glycerol kinase activity (GLPK) that catalyses the following reaction: Glycerol+ATP=>Glycerol-3-Phosphate+ADP, was determined by measuring the ADP appearance by enzymatic coupling to NADH oxidation. […] The oxidation of NADH was monitored at 30° C. by absorbance at 340 nm on a spectrophotometer (λ340=6290 M^−1 cm^−1).
(§6) One unit of enzyme activity was defined as the amount of enzyme catalyzing the decrease of 1 μmol of NADH per min. Kinetic parameters were determined with Sigmaplot by fitting to the Michaelis-Menten equation.

Substrate in data set [2]: OCC(O)CO
Put plainly: Glycerol kinase activity towards glycerol (ADP appearance coupled to NADH oxidation), A347T. Conditions: other: GlpK* A347T, pH 9, 30° C., 2 mM ATP, 0.01-50 mM glycerol.
Description: as §1, §2, §3, §4, §5, §6

Substrate in data set [3]: OCC(O)CO
Briefly: Glycerol kinase activity towards glycerol (ADP appearance coupled to NADH oxidation), H22Y. Conditions: other: GlpK* H22Y, pH 9, 30° C., 2 mM ATP, 0.01-50 mM glycerol.
Description: as §1, §2, §3, §4, §5, §6

Substrate in data set [4]: OCC(O)CO
Put plainly: Glycerol kinase activity towards glycerol (ADP appearance coupled to NADH oxidation), A347T/V466M. The conditions noted are these: other: GlpK* (A347T/V466M), pH 9, 30° C., 2 mM ATP, 0.01-50 mM glycerol.
Description: as §1, §2, §3, §4, §5, §6

Substrate in data set [5]: OCC(O)CO
Put plainly: Glycerol kinase activity towards glycerol (ADP appearance coupled to NADH oxidation), H22Y/A347T. The conditions noted are these: other: GlpK* (H22Y/A347T), pH 9, 30° C., 2 mM ATP, 0.01-50 mM glycerol.
Description: as §1, §2, §3, §4, §5, §6

Substrate in data set [6]: OCC(O)CO
Put plainly: Glycerol kinase activity towards glycerol (ADP appearance coupled to NADH oxidation), V466M. The conditions noted are these: other: GlpK* V466M, pH 9, 30° C., 2 mM ATP, 0.01-50 mM glycerol.
Description: as §1, §2, §3, §4, §5, §6

B1: Clostridium acetobutylicum glycerol kinase GlpK wt (glpK, CA_C1321, Uniprot Q97JG4), SEQ ID NO: 1 (Clostridium acetobutylicum ATCC 824) (protein)
chain: MKKYIIALDQGTTSSRAIIFDHEQNILEISQKEFTQIYPSKGWVEHNPLEIWSSQYGVLQEVMAKANITQENIAAIGITNQRETTIVWDKNTGEPVYNAIVWQCRRTADIVEGLKRDKEFSDYVKENTGLILDAYFSATKIKWILDNVEGAREKAEKGELLFGTVDTWLVWKLTNGKVHVTDYTNASRTMLYNIKELKWDERILRKLNIPRSMLPEVKNSSEVYGYTNLGGKGGIRVPIAGMAGDQQCALFGQTCFEEGSVKNTYGTGCFLLMNTGENIIQSKNGLVTTIAIGLEGKVQYALEGSVFVGGAVIQWIRDELKLVSDAADTEYFAKKVNDNGGVYVVPAFTGLGAPYWDMYARGAIFGLTRGANKNHIIRAALEAIAYQSRDLIDAMKEDSGCEITRIKVDGGASRNNLLMQFQADITGTEVVRPIITETTALGAAYLAGLAVGFWKSKEEIAEKWSVSEVYTPNLDEDEKIRLYNGWKRAVERVQGWEE
notes: GlpK wt; Q97JG4; made in house; host or cells: E. coli BL21(DE3) star
For the protein B1, in data set [1], the Michaelis-Menten constant (Km) came out at 54 ± 1 µM, the Vmax is reported as 87734 ± 499 nmol/min/mg, the kcat was determined as 82.22 ± 0.467 s⁻¹ and the kcat/Km is 1.52e+06 ± 53000 M⁻¹ s⁻¹.

B2: Clostridium acetobutylicum glycerol kinase GlpK variant GlpK*(A347T), SEQ ID NO: 3 (Clostridium acetobutylicum ATCC 824; A347T) (protein)
chain: MKKYIIALDQGTTSSRAIIFDHEQNILEISQKEFTQIYPSKGWVEHNPLEIWSSQYGVLQEVMAKANITQENIAAIGITNQRETTIVWDKNTGEPVYNAIVWQCRRTADIVEGLKRDKEFSDYVKENTGLILDAYFSATKIKWILDNVEGAREKAEKGELLFGTVDTWLVWKLTNGKVHVTDYTNASRTMLYNIKELKWDERILRKLNIPRSMLPEVKNSSEVYGYTNLGGKGGIRVPIAGMAGDQQCALFGQTCFEEGSVKNTYGTGCFLLMNTGENIIQSKNGLVTTIAIGLEGKVQYALEGSVFVGGAVIQWIRDELKLVSDAADTEYFAKKVNDNGGVYVVPTFTGLGAPYWDMYARGAIFGLTRGANKNHIIRAALEAIAYQSRDLIDAMKEDSGCEITRIKVDGGASRNNLLMQFQADITGTEVVRPIITETTALGAAYLAGLAVGFWKSKEEIAEKWSVSEVYTPNLDEDEKIRLYNGWKRAVERVQGWEE
notes: GlpK*(A347T); made in house; host or cells: E. coli BL21(DE3) star
Consider B2, for which, in data set [2], the Km was found to be 260 ± 31 µM, the Vmax turned out to be 6977 ± 155 nmol/min/mg, the kcat stood at 6.538 ± 0.145 s⁻¹ and the kcat/Km was 24900 ± 3500 M⁻¹ s⁻¹.

B3: Clostridium acetobutylicum glycerol kinase GlpK variant GlpK*(H22Y), SEQ ID NO: 5 (Clostridium acetobutylicum ATCC 824; H22Y) (protein)
chain: MKKYIIALDQGTTSSRAIIFDYEQNILEISQKEFTQIYPSKGWVEHNPLEIWSSQYGVLQEVMAKANITQENIAAIGITNQRETTIVWDKNTGEPVYNAIVWQCRRTADIVEGLKRDKEFSDYVKENTGLILDAYFSATKIKWILDNVEGAREKAEKGELLFGTVDTWLVWKLTNGKVHVTDYTNASRTMLYNIKELKWDERILRKLNIPRSMLPEVKNSSEVYGYTNLGGKGGIRVPIAGMAGDQQCALFGQTCFEEGSVKNTYGTGCFLLMNTGENIIQSKNGLVTTIAIGLEGKVQYALEGSVFVGGAVIQWIRDELKLVSDAADTEYFAKKVNDNGGVYVVPAFTGLGAPYWDMYARGAIFGLTRGANKNHIIRAALEAIAYQSRDLIDAMKEDSGCEITRIKVDGGASRNNLLMQFQADITGTEVVRPIITETTALGAAYLAGLAVGFWKSKEEIAEKWSVSEVYTPNLDEDEKIRLYNGWKRAVERVQGWEE
notes: GlpK*(H22Y); made in house; host or cells: E. coli BL21(DE3) star
Turning to B3, in data set [3], the Km came to 70 ± 4 µM, the Vmax amounted to 91725 ± 1186 nmol/min/mg, the kcat came out at 85.97 ± 1.12 s⁻¹ and the kcat/Km was found to be 1.229e+06 ± 93000 M⁻¹ s⁻¹.

B4: Clostridium acetobutylicum glycerol kinase GlpK variant GlpK*(A347T/V466M), SEQ ID NO: 11 (Clostridium acetobutylicum ATCC 824; A347T/V466M) (protein)
chain: MKKYIIALDQGTTSSRAIIFDHEQNILEISQKEFTQIYPSKGWVEHNPLEIWSSQYGVLQEVMAKANITQENIAAIGITNQRETTIVWDKNTGEPVYNAIVWQCRRTADIVEGLKRDKEFSDYVKENTGLILDAYFSATKIKWILDNVEGAREKAEKGELLFGTVDTWLVWKLTNGKVHVTDYTNASRTMLYNIKELKWDERILRKLNIPRSMLPEVKNSSEVYGYTNLGGKGGIRVPIAGMAGDQQCALFGQTCFEEGSVKNTYGTGCFLLMNTGENIIQSKNGLVTTIAIGLEGKVQYALEGSVFVGGAVIQWIRDELKLVSDAADTEYFAKKVNDNGGVYVVPTFTGLGAPYWDMYARGAIFGLTRGANKNHIIRAALEAIAYQSRDLIDAMKEDSGCEITRIKVDGGASRNNLLMQFQADITGTEVVRPIITETTALGAAYLAGLAVGFWKSKEEIAEKWSMSEVYTPNLDEDEKIRLYNGWKRAVERVQGWEE
notes: GlpK*(A347T/); made in house; host or cells: E. coli BL21(DE3) star
As to B4, in data set [4], the Km stood at 480 ± 48 µM, the Vmax was found to be 6267 ± 175 nmol/min/mg, the kcat is 5.873 ± 0.163 s⁻¹ and the kcat/Km is 12310 ± 1600 M⁻¹ s⁻¹.

B5: Clostridium acetobutylicum glycerol kinase GlpK variant GlpK*(H22Y/A347T), SEQ ID NO: 9 (Clostridium acetobutylicum ATCC 824; A347T/H22Y) (protein)
chain: MKKYIIALDQGTTSSRAIIFDYEQNILEISQKEFTQIYPSKGWVEHNPLEIWSSQYGVLQEVMAKANITQENIAAIGITNQRETTIVWDKNTGEPVYNAIVWQCRRTADIVEGLKRDKEFSDYVKENTGLILDAYFSATKIKWILDNVEGAREKAEKGELLFGTVDTWLVWKLTNGKVHVTDYTNASRTMLYNIKELKWDERILRKLNIPRSMLPEVKNSSEVYGYTNLGGKGGIRVPIAGMAGDQQCALFGQTCFEEGSVKNTYGTGCFLLMNTGENIIQSKNGLVTTIAIGLEGKVQYALEGSVFVGGAVIQWIRDELKLVSDAADTEYFAKKVNDNGGVYVVPTFTGLGAPYWDMYARGAIFGLTRGANKNHIIRAALEAIAYQSRDLIDAMKEDSGCEITRIKVDGGASRNNLLMQFQADITGTEVVRPIITETTALGAAYLAGLAVGFWKSKEEIAEKWSVSEVYTPNLDEDEKIRLYNGWKRAVERVQGWEE
notes: GlpK*(H22Y/); made in house; host or cells: E. coli BL21(DE3) star
As to B5, in data set [5], the Km came to 620 ± 50 µM, the Vmax is 9784 ± 195 nmol/min/mg, the kcat came to 9.08 ± 0.183 s⁻¹ and the kcat/Km stood at 14700 ± 1500 M⁻¹ s⁻¹.

B6: Clostridium acetobutylicum glycerol kinase GlpK variant GlpK*(V466M), SEQ ID NO: 7 (Clostridium acetobutylicum ATCC 824; V466M) (protein)
chain: MKKYIIALDQGTTSSRAIIFDHEQNILEISQKEFTQIYPSKGWVEHNPLEIWSSQYGVLQEVMAKANITQENIAAIGITNQRETTIVWDKNTGEPVYNAIVWQCRRTADIVEGLKRDKEFSDYVKENTGLILDAYFSATKIKWILDNVEGAREKAEKGELLFGTVDTWLVWKLTNGKVHVTDYTNASRTMLYNIKELKWDERILRKLNIPRSMLPEVKNSSEVYGYTNLGGKGGIRVPIAGMAGDQQCALFGQTCFEEGSVKNTYGTGCFLLMNTGENIIQSKNGLVTTIAIGLEGKVQYALEGSVFVGGAVIQWIRDELKLVSDAADTEYFAKKVNDNGGVYVVPAFTGLGAPYWDMYARGAIFGLTRGANKNHIIRAALEAIAYQSRDLIDAMKEDSGCEITRIKVDGGASRNNLLMQFQADITGTEVVRPIITETTALGAAYLAGLAVGFWKSKEEIAEKWSMSEVYTPNLDEDEKIRLYNGWKRAVERVQGWEE
notes: GlpK*(V466M); made in house; host or cells: E. coli BL21(DE3) star
As to B6, in data set [6], the Km was determined as 58 ± 3 µM, the Vmax stood at 60399 ± 537 nmol/min/mg, the kcat is 56.6 ± 0.5 s⁻¹ and the kcat/Km was determined as 973000 ± 52000 M⁻¹ s⁻¹.

The record behind these values is patent US11814663B2, “Microorganisms with improved 1,3-propanediol and butyric acid production” (METABOLIC EXPLORER, priority 2018, dated 2023).
